The source of these data is the DeepSol protein solubility set.

This data set can be described thus: soluble on expression in E. coli; label from the status in PepcDB or PDB records.
“MGHHHHHHSHPSSPDSLHYLSPTGVNEYLMALWSVGSVVQDYDSDKLFPAFGFGAQVPPDWQVSHEFALNFNPSNPYCAGIQGIVDAYRQALPQVRLYGPTNFAPIINHVARFAAQAAHQGTASQYFMLLLLTDGAVTDVEATREAVVRASNLPMSVIIVGVGGADFEAMEQLDADGGPLHTRSGQAAARDIVQFVPYRRFQNAPREALAQTVLAEVPTQLVSYFRAQGWAPLKPLPP”: the “soluble on expression in E. coli” value was “not soluble”.

For the sequence “MGHHHHHHSHVLLVTANVGSLFDDPENLQKNWLREFYQVVHTHKPHFMALHCQEFGGKNYEASMSHVDKFVKELLSSDAMKEYNRARVYLDENYKSQEHFTALGSFYFLHESLKNIYQFDFKAKKYRKVAGKEIYSDTLESTPMLEKEKFPQDYFPECKWSRKGFIRTRWCIADCAFDLVNIHLFHDASNLVAWETSPSVYSGIRHKALGYVLDRIIDQRFEKVSYFVFGDFNFRLDSKSVVETLCTKATMQTVRAADTNEVVKLIFRESDNDRKVMLQLEKKLFDYFNQEVFRDNNGTALLEFDKELSVFKDRLYELDISFPPSYPYSEDARQGEQYMNTRCPAWCDRILMSPSAKELVLRSESEEKVVTYDHIGPNVCMGDHKPVFLAFRIMPG”, the “soluble on expression in E. coli” value is on record as “not soluble”.

On to “MGIIISLVAPTVSSTISSRLMIGPENNEKDAKNSDRTKYDNLAMLGRSPEQKEHVNPFEKAPVARPTRNTVDSQMMLGPPKKANDQSASDCSIYDNLVVPMSELGPTPGNKPSPNPIEGAPMIRPPQDTVSRAPDNSIYDTLQMTPEVDWSKKMTMKSMKKTGK”, for which the “soluble on expression in E. coli” value is “not soluble”.

As for “MGILAERLDSLSIETSSPDGQITGVFRPTSALSVHFRDGGYRGYTERGLERQLAALVASAWARYWRARQAAVAEATGEPAVPHQPWDTAGRRYRAERDRTRCEGMSAGHRVHVSHTGLRDWNVVVRDGTLSTLDEFGFAAELESGFTAAMRDHRHKLMMLRDKHLPR”, the “soluble on expression in E. coli” value is recorded as “not soluble”.

As for “MGIMELARIDLSRDDLDKRIGGGIPHGSLIIIEGEESTGKSVLCQRLAYGFLQNRYSVTYVSTQLTTLEFIKQMNSLNYSINKKLLSGALLYIPVYPLIADNKKKDGFLKKVMETRAFYEKDVIIFDSISALIANDASEVNVDDLMAFFKRITALKKIIICTVNPKELPESVLTIIRTSATMLIRTELFTFGGDLKNLAKILKYNMAPGSYQKNIVFRVEPKIGIAVEIASVALEHHHHHH”, the “soluble on expression in E. coli” value is “soluble”.

“MGIPKEGEFVTIQSYKHDGHLHRTWRDTMVLKTSEYSLIGVNDHTLVTESDGRRWVTREPAIVYFHKKYWFNIIAMIREKGVSYYCNLASPYVLDDEALKYIDYDLDIKVFPDGEKRLLDVDEYEFHSKLMDYPEDIDFILKENVKTLVDWINNEKGPFSPEYVDIWYQRYQQLSKK”: the “soluble on expression in E. coli” value is “not soluble”.

For the sequence “MGIRVKRRQHQHLLESLVHSTAKQQGDFTKTAELATELLCQNLAVSLVSIWIFSADQGTQSLVAQFGSMALQDTYRPSLLHTVPRYLNELKNYRHIDAGNTLIDPRLTELVDSYFIPRQILSSLDVGIRINGHLEGVLCIERAQVTHHWHDSEIHLACQMADQLALTLATKHAYDKEERLSLFRCAIEQSRQMSMLEHHHHHH”, the “soluble on expression in E. coli” value is on record as “soluble”.

“MGITTNLISEVSKFYYALKYHAKFMSLGELGCYASHYSLWEKCIELNEAICILEDDITLKEDFKEGLDFLEKHIQELGYIRLMHLLYDASVKSEPLSHKNHEIQERVGIIKAYSEGVGTQGYVITPKIAKVFLKCSRKWVVPVDTIMDATFIHGVKNLVLQPFVIADDEQISTIARKEEPYSPKIALMRELHFKYLKYWQFVLEHHHHHH”: the “soluble on expression in E. coli” value is “soluble”.

Turning to “MGKARGVNNGVNESSLGYLFGSGQPSSAAAATMGTTTTTTTTTTTDGTGGRPITTTTTTVTDNKKTSAGVRGSPNNYFRSEGQNCGNFLTDRPSTKVHAAPGGGSSLDYLFGGPSPAGSGNK”, the “soluble on expression in E. coli” value was “not soluble”.

For “MGKNKQNKFFQMKASANGKTADVFIYGEITKYAWEEYGEVSSITFKNELDELGDDIKTINLYINSPGGSVFETMAIIAMLQRHHAKIISYIDGIGASCASVLPMISDKIIMYANSMMMIHNAWTYASGNADQLRKAADDIERINQSMVQHYLTRAGDKLDEDTLKQLLDAETWLSAEEAMGYGLCDEIIPANNATACLDEKWMKEYKNIPQQLVNAQANISSNEMLERQKIAEEAKANADYIKTILGRIHS”, the “soluble on expression in E. coli” value was “not soluble”.

As to “MGKPVVAIVGRPNVGKSTIFNRIAGERISIVEDTPGVTRDRIYSSAEWLNYDFNLIDTGGIDIGDEPFLAQIRQQAEIAMDEADVIIFMVNGREGVTAADEEVAKILYRTKKPVVLAVNKLDNTEMRANIYDFYSLGFGEPYPISGTHGLGLGDLLDAVAEHFKNIPETKYNEEVIQFCLIGRPNVGKSSLVNAMLGEERVIVSNVAGTTRDAVDTSFTYNQQEFVIVDTAGMRKKGKVYETTEKYSVLRALKAIDRSEVVAVVLDGEEGIIEQDKRIAGYAHEAGKAVVIVVNKWDAVDKDESTMKEFEENIRDHFQFLDYAPILFMSALTKKRIHTLMPAIIKASENHSLRVQTNVLNDVIMDAVAMNPTPTHNGSRLKIYYATQVSVKPPSFVVFVNDPELMHFSYERFLENRIRDAFGFEGTPIKIFARARK”, the “soluble on expression in E. coli” value was “soluble”.

“MGKRSGASYRSRRPKLACADWDKRMMQTQPFRLPRFTPFGVIEKGVELATGLSQLERYYQQRPTTRDGFEFMRYTLEALNVHYQVDRGRVEQIPAQGPVVIVANHPLGAIEGVILADLVGQVRKDVKVLANQLLKRLPEIEPLFIGVDVFNGAQASKTNARGIREAHRHLAEGGVLIVFPAGEVSTPQKETGQLSDIDWSQSVAKFIQRSQARCVPIYIHGRNSAWFYRAGKIHPLLRTAMLGRELLNKSASTISLCIGQPIPYAELKEFTKDEDVVNYLRLNTYLMSPHGQVESAKVSFTIPVIDPVPKAALIAELAQLDKQAKLLEQGEFTVYCVPSTHIPLMMQEIGRVREISFRAVGEGSGQACDVDAYDHHYWQLFVWNREQSELVGAYRMGLVDKIVAERGLQGLYSRSLFHYDHAFLATLENAIELGRSVVAEQYQRNLNSLLLLWKGIARFVELNPHYTHLFGPVSISNDYSPAARQLMAATLSIHHYDQHKAALVSPSTPLRAGTEVFWQKSLLSALASVSLLSKVVARMEQGNGLPVLLRQYLGMNGKLVCLNVDPAFNDALDGLIVVNLKQVPLKTLAKYMGKEAAQHYLCSVT”: the “soluble on expression in E. coli” value is given as “not soluble”.

On to “MGKSLDEQFEAAVWIINALPKNGPIKTSINDQLQMYSLYKQATSGKCDTIQPYFFQIEQRMKWNAWNQLGNMDEAEAKAQYVEKMLKLCNQAEAEHNLMEFLSDPTIADLLPKQNQLREHFATLGRTTVKGFEGETVEINGVSISF”, for which the “soluble on expression in E. coli” value was “not soluble”.

Turning to “MGLAASEALQGSEQEINSAFSNQITPVISGDYIVWQDERDGNWDIYMYDMSAGRTETSLFNGPKDEIEPAISGSRVVLADNRRGNYDIYMYDISTKKEVQVTSDKSEQKEPAISEDIIVWTDRRNQNTDIYMYDLTTKEETRITDDKADQSQPAVWGNIIVWKDTRNGNEDIYMYDISAGKESPVVMDSAAQTNPVIEGDYIVWEDRRAGNLDIYMYEISTGKEKPVCTDPSPQKTPAISDGRIVWADGRIKGTNIFIYDIATGQEKTVSTASEYESNPSIDGNRIVWQDKRKGAMDIFMFTEDASETESTAGEKTEAETGSKAPLGIYPVSAGVIAAYLMINSGKKGKRKTLEHHHHHH”, the “soluble on expression in E. coli” value was “not soluble”.

Consider “MGLCLAKRNHDADDDEPHIELAGGNVHLITTKERWDQKLSEASRDGKIVLANFSARWCGPCKQIAPYYIELSENYPSLMFLVIDVDELSDFSASWEIKATPTFFFLRDGQQVDKLVGANKPELHKKITAILDSLPPSDK”, for which the “soluble on expression in E. coli” value is recorded as “soluble”.

Regarding “MGLHVPADQHDLDFTRLGPWFSVMVNGEGQRYKVSGQVTHVKPPQSVGFTWGWHDDDDRRGAESHVMFIVEPCAKGARLILDHRELGDDEMSLRHEEGWTSSLRKLAAELEHHHHHH”, the “soluble on expression in E. coli” value is “not soluble”.

Regarding “MGLIVDDDNDGEVLIPPPNFSMVEDEIYRSGFPELENFGFLSTLNLRSIIYLCPEPYPEDNLKSLASNNIKLFQFGIEGKTDPPTPMPKDTVLSALRVLVDVRNHPILIHCKRGKHRTGCLVGCLRKVQNWCLSSVLEEYQKCAGLKWRQRDLRFIEDFDVLRLKQCLYSIIYQYNGYGLKRRKLLYQEENVVQEQQKPQATKG”, the “soluble on expression in E. coli” value is “soluble”.

With “MGLSCTDDWRVIDLPGSFITVTNLNQFTLNGDGFAARMEMTLVAPDHGGDSDLIAMGELIEQAISGVRSLGGAIESIELNQQVTPPHGGKAPASTMTFTLFYDMENEE”, the “soluble on expression in E. coli” value is reported as “not soluble”.

Take “MGLTVEAADEKGLTLRLPYSQAIIGNPESGVVHGGAITTLMDTTCGISTVCVLPDFEICPTLDLRIDYMHPAEPHKDVYGFAECYRVTPNVIFTRGFAYQDDPGQPIAHVVGAFMRMGLEHHHHHH”: the “soluble on expression in E. coli” value is reported as “not soluble”.

Regarding “MGMLVEGVWKDVWYDTKETKGHFKRSASQFRNWVTVDGAVGPSGEGGFEAEKDRYHLYVSFACPWAHRTLIFRKLKKLEDLISVSVVDPLMLENGWEFKPEGERTPGATQDHLFGSSTLWQVYTKADPTYSGRVTVPVLWDKKRGTIVSNESAEIIRMFNVAFNDLTGSDADYYPKALRAEIDALNDVIYDTVNNGVYKAGFATTQDAYQQNAVKVFETLDMLEDRLKDRRFLFGSEQTEADWRLFTTLVRFDPVYVGHFKCNIRRIHDYPHLTGYLRDLYQTPGVPDTVDMRHIKEHYYRSHRTINPTGIVPIGPELDLTMAHGREALS”, the “soluble on expression in E. coli” value was “soluble”.

As to “MGMPEEALKIYQELLEIEKELGNEREIALTLANIAVVKDELGEADEAIKLMSEAKDIFEKINDTKNYHIALIDLAHFYYELGEYEKAMQIIEEVLRNPLDDEIEVHGRLVESEIHSALENYKKAALSLRNALLRSGDDEYLFETAFEAVLEFIEELYNEEKLEHHHHHH”, the “soluble on expression in E. coli” value was “not soluble”.

With “MGMTIVEKILAKASGKKEVSPGDIVMANIDVAMVHDITGPLTVNTLKEYGIEKVWNPEKIVILFDHQVPADSIKAAENHILMRKFVKEQGIKYFYDIREGVCHQVLPEKGHVAPGEVVVGADSHTCTHGAFGAFATGIGSTDMAHVFATGKLWFKVPET”, the “soluble on expression in E. coli” value is “not soluble”.

As to “MGNTLGLAPMGTLPRRSPRREEPLPNPGSFDELHRLCKDVFPAQMEGVKLVVNKVLSSHFQVAHTIHMSALGLPGYHLHAAYAGDWQLSPTEVFPTVVGDMDSSGSLNAQVLLLLAERLRAKAVFQTQQAKFLTWQFDGEYRGDDYTATLTLGNPDLIGESVIMVAHFLQSLTHRLVLGGELVYHRRPGEEGAILTLAGKYSAVHWVATLNVGSGGAHASYYHRANEQVQVGVEFEANTRLQDTTFSFGYHLTLPQANMVFRGLVDSNWCVGAVLEKKMPPLPVTLALGAFLNHWRNRFHCGFSITVG”, the “soluble on expression in E. coli” value is “soluble”.

“MGNYMTYIVGLTGGIGSGKTTIANLFTDLGVPLVDADVVAREVVAKDSPLLSKIVEHFGAQILTEQGELNRAALRERVFNHDEDKLWLNNLLHPAIRERMKQKLAEQTAPYTLFVVPLLIENKLTALCDRILVVDVSPQTQLARSAQRDNNNFEQIQRIMNSQVSQQERLKWADDVINNDAELAQNLPHLQQKVLELHQFYLQQAENKNALEHHHHHH”: the “soluble on expression in E. coli” value was “soluble”.

On to “MGPHFTLLLAALANCLCPGRPCIKCDQFVTDALKTFENTYLNDHLPHDIHKNVMRMVNHEVSSFGVVTSAEDSYLGAVDENTLEQATWSFLKDLKRITDSDLKGELFIKELLWMLRHQKDIFNNLARQFQKEVLCPNKCGVMSQTLIWCLKCEKQLHICRK”, for which the “soluble on expression in E. coli” value is on record as “not soluble”.
